Data reported in patent US20230051715A1 (MABWELL THERAPEUTICS, published 2023).
Positions count from the first letter of the chain named. In names and notes the source's numbering stands. Blank lines part the entries; values can stand above or below the binder they belong to.

Legend:
[1] = target: T1, human C1s mutant M14 (R316H) (human, UniProt P09871 16-688); assay: ELISA, plate coated with human C1s mutant M14: R316H, OD450nm
T1 construct: The entry is the mutant itself
T1 sequence: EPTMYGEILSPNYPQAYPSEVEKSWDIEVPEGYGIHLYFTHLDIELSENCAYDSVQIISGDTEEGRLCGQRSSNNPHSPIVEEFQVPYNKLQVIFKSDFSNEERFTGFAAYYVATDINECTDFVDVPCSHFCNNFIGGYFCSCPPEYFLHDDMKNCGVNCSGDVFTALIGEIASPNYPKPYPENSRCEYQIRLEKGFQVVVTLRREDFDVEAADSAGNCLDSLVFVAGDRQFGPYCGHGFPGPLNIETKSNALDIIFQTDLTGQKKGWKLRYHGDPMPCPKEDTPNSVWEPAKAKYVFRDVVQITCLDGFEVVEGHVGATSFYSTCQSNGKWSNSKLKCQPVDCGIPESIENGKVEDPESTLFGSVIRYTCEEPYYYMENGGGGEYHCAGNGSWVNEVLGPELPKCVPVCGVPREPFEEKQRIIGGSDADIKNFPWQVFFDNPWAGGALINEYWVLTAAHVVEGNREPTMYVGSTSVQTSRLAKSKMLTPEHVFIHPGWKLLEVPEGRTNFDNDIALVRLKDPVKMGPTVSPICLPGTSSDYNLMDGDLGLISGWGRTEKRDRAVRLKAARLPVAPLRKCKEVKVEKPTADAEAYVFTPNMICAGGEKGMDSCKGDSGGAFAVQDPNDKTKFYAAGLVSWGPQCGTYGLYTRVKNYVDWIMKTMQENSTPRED
Procedure: (§1) ELISA was carried out by first coating 96-well plates with 200 ng/well of full-length or truncated C1s proteins overnight. The next morning, plates were blocked with SuperBlock T20 blocking buffer (Thermo Scientific 37536) for 1 h with gentle shaking. Then, various concentrations of anti-C1s antibodies diluted in SuperBlock T20 blocking buffer were added to the plates and incubated for 1 h with gentle shaking. Mouse IgG (Sigma-Aldrich 15381) and human IgG1 (BioXCell BP0297) were used as negative controls. The plates were washed before incubating with HRP conjugated secondary antibodies diluted in SuperBlock T20 blocking buffer (goat anti-mouse IgG (H+L) cross-adsorbed secondary antibody HRP (Invitrogen G-21040) or goat anti-human IgG antibody, HRP conjugate (Millipore AP309P)) for 1 h with gentle shaking. At last, the plates were washed and color developed with ELISA liquid HRP substrate (Sigma-Aldrich), followed by stopping the reaction with addition of 1M H₂SO₄ in the same volume as the ELISA liquid substrate. Bound antibody was measured by absorbance at OD₄₅₀ₙₘ.
(§2) Binding of anti-C1s antibodies to mutants M1-M20 of human C1s was measured by ELISA as described in Example 4, and results are shown in FIGS. 6B-6U. All anti-C1s humanized variants including hz2-7(H1L2), hz2-8(H1L2 G80A) and hz2-8(H1L2 G80A/T82A) maintained strong binding properties to the majority (16 out of 20) of C1s mutants including M1 (FIG. 6B), M2 (FIG. 6C), M3 (FIG. 6D). M4 (FIG. 6E), M7 (FIG. 6H), M8 (FIG. 6I), M10 (FIG. 6K), M11 (FIG. 6L), M12 (FIG. 6M), M13 (FIG. 6N), M15 (FIG. 6P), M16 (FIG. 6Q), M17 (FIG. 6R), M18 (FIG. 6S), M19 (FIG. 6T) and M20 (FIG. 6U).

[2] = target: T2, human C1s mutant M18 (V288T) (human, UniProt P09871 16-688); assay: ELISA, plate coated with human C1s mutant M18: V288T, OD450nm
T2 construct: The entry is the mutant itself
T2 sequence: T1 sequence with V288T, H316R
Procedure: as §1, §2

[3] = target: T3, human C1s mutant M7 (D343Y & E351A) (human, UniProt P09871 16-688); assay: ELISA, plate coated with human C1s mutant M7: D343Y, E351A, OD450nm
T3 construct: The entry is the mutant itself
T3 sequence: T1 sequence with H316R, D343Y, E351A
Procedure: as §1, §2

binding result [1]: no binding (tested: 1000 ng/ml (Log 3))
EC50 [2]: 5 ng/mL
EC50 [3]: 15 ng/mL
B1: Anti-C1s antibody hz2-7(H1L2) (antibody, V domains shown)
VH: EVQLLESGGGLVQPGGSLRLSCAASGFTFSNYFMNWVRQAPGKGLEWVSEIRLKFTNYATHYADSVKGRFTISRDDSKSTLYLQMNSLRAEDTAVYYCTRDYGSRNGYFDYWGQGTLVTVSS
VL: DIVMTQTPLSLPVTPGEPASISCRSSKSLLHSNGNTFLYWFLQKPGQSPQLLIYRMSNLASGVPDRFSGSGSGTDFTLKISRVEAEDVGVYYCMQHLEYPYTFGGGTKLEIKR
notes: Humanized, human IgG1 / kappa; also called hz2-7(1L2)

EC50 [1]: 5 ng/mL
EC50 [2]: 3 ng/mL
EC50 [3]: 12 ng/mL
B2: Anti-C1s antibody hz2-8 (H1L2 G80A) (antibody, V domains shown)
VH: QVQLVQSGAEVKKPGASVKVSCKASGFNIKEYYMHWVRQAPEQGLEWMGWIDPENADTIYAQKFQGRVTITADTSTNTAYMELSSLRSEDTAVYYCARSRLFFAYWGQGTLVTVSS
VL: DIQMTQSPKSLSASVGDRVTITCRASQDVRTALDWYQQKPGQSPKLLIYSASYRYSGVPSRFSGSGSGTDFTLTISSLQPEDFATYYCQQQYTTPYTFGQGTKLEIKR
notes: Humanized variant with G80A in HC CDR2 (already in the entry), human IgG1 / kappa

EC50 [1]: 8 ng/mL
EC50 [2]: 4 ng/mL
EC50 [3]: 11 ng/mL
B3: Anti-C1s antibody hz2-8 (H1L2 G80A/T82A) (antibody, V domains shown)
VH: B2 VH with T58A
VL: B2 VL
notes: Humanized variant with G80A and T82A in HC CDR2 (already in the entry), human IgG1 / kappa
